Literature values, collected in paper PMC2517140.

Target: gp41 trimeric inner core (Human immunodeficiency virus 1) (UniProt O70902)

## gp41 outer-layer peptide (from UniProt O70902)
  Kd: 1 nM
